In test [1] the target is T1, human syndecan-1 (human, UniProt P18827 23-310).
T1 construct: also called mammalian syndecan-1; CD138
T1 sequence (looked up): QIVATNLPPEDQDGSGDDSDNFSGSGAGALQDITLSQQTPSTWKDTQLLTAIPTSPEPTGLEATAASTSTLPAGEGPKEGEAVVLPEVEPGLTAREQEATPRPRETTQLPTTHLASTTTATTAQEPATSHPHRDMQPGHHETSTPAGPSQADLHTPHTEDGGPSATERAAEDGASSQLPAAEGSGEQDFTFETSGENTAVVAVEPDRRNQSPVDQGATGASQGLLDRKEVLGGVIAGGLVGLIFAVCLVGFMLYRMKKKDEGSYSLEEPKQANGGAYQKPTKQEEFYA
Put plainly: pull-down from lysates of transfected cells with intein-tagged deletion mutant. Here is the method: (§1) After washing extensively in physiological salt-containing buffer, bound protein was eluted with 1 M NaCl, and identified with avidin-peroxidase using an ECL blot method. […] 293T cells stably transfected with human syndecan-2 or −4 were kindly provided by Dr. Atsushi Utani (Chiba University). […] Immunolocalization of syndecan-1 in human lacrimal glands was performed using anti-human syndecan-1 antibody (CD138).

Test [2] has as its target T1, human syndecan-1. Put plainly: lacritin affinity column, biotinylated cell surface proteins, elution with 1 M NaCl, sequencing. Here is the method: as §1
The next test concerns the target T2, human syndecan-4 (human, UniProt P31431 19-198).
T2 sequence (looked up): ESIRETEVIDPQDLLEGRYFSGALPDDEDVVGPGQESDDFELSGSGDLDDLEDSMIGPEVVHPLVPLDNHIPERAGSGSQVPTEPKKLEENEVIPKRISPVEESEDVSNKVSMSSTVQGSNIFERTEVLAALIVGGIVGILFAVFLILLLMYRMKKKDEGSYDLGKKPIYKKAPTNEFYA
Description: pull-down from lysates of transfected 293T cells with intein-tagged lacritin. Here is the method: as §1

The next test deals with human syndecan-2 (human, UniProt P34741 19-201). Described as above. Here is the method: as §1
Test [3] addresses T1, human syndecan-1. Put plainly: pull-down from lysates of transfected cells with intein-tagged lacritin, SDS PAGE. On the procedure:
as §1

human syndecan-2, sequence (P34741 19-201 limits assumed): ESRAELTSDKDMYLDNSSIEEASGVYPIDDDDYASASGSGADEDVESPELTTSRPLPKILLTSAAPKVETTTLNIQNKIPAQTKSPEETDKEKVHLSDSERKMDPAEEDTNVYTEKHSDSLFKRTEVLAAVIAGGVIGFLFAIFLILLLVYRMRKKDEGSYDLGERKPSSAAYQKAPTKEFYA

B1: intein-tagged lacritin deletion mutant C-25 (ligand)
chain: EDASSDSTGADPAQEAGTSKPNEEISGPAEPASPPETTTTAQETSAAAVQGTAKVTSSRQELNPLKSIVEKSILLTEQALAKAGKGMHGGVPGG
notes: Pull-downs used 'intein deletion mutants'; also called lacritin lacking 25 C-terminal amino acids; not shown: intein tag of vector pTYB11
For the molecule B1, the binding result with human syndecan-1 [1] is “no binding”.

B2: mature lacritin (recombinant, from pLAC, cleaved from intein) (ligand)
chain: EDASSDSTGADPAQEAGTSKPNEEISGPAEPASPPETTTTAQETSAAAVQGTAKVTSSRQELNPLKSIVEKSILLTEQALAKAGKGMHGGVPGGKQFIENGSEFAQKLLKKFSLLKPWA
notes: also called soluble lacritin
With B2, the binding result with human syndecan-1 [2] is “binds”.

B3: intein-tagged lacritin (pLAC lacritin-intein fusion) (ligand, not shown: small tags and cut ends)
chain: B2 chain
As to B3, the binding result with human syndecan-4 was “no binding”; with human syndecan-2, “no binding”; with human syndecan-1 [3], “binds”.

Values taken from US20070207522A1 (UNIVERSITY OF VIRGINIA PATENT FOUNDATION, published 2007).
